The results in this text go back to the supplement of paper PMC9112550, “Optimization of the antimicrobial peptide Bac7 by deep mutational scanning” (BMC Biology, 2022).
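Note: peptides expressed intracellularly from a pBAD plasmid library in pooled LB shake-flask culture, induced with 0.3% L-arabinose, DNA abundance read by NGS, three biological replicates, DESeq2 with apeglm shrinkage.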

For the data set, the system named is Escherichia coli TOP10. The data set can be described thus: shrunken log2 fold change of peptide-encoding DNA abundance (4.5 h post-induction vs induction); higher = less antimicrobial activity (less host growth inhibition). The settings on record: time post-induction: 4.5 h; library: site-saturation at positions 5, 18, 19, 20.
RRIRGRPPRLPRPRPRPHLHPRP: the “shrunken log2 fold change” value turned out to be 0.227.

As to RRIRARPPRLPRPRPRPNMVPRP, the “shrunken log2 fold change” value is -0.175. With RRIRVRPPRLPRPRPRPKQGPRP, the “shrunken log2 fold change” value worked out at 0.0222. With RRIRHRPPRLPRPRPRPRCWPRP, the “shrunken log2 fold change” value is 0.145.

In the case of RRIRARPPRLPRPRPRPGHIPRP, the “shrunken log2 fold change” value amounted to 0.0195. Regarding RRIRLRPPRLPRPRPRPKTWPRP, the “shrunken log2 fold change” value came out at 0.108.

With RRIRPRPPRLPRPRPRPKSTPRP, the “shrunken log2 fold change” value was -0.244. The same measure for RRIRSRPPRLPRPRPRPCHAPRP: -0.0203; for RRIRDRPPRLPRPRPRPKEFPRP: 0.0479; for RRIRRRPPRLPRPRPRPLADPRP: 0.311. For the sequence RRIRDRPPRLPRPRPRPVRMPRP, the “shrunken log2 fold change” value came to 0.059. RRIRARPPRLPRPRPRPCPIPRP: the “shrunken log2 fold change” value was -0.244.

Take RRIRCRPPRLPRPRPRPRVHPRP: the “shrunken log2 fold change” value is -0.152.

Consider RRIRIRPPRLPRPRPRPRQNPRP, for which the “shrunken log2 fold change” value is -0.459. Regarding RRIRARPPRLPRPRPRPYGYPRP, the “shrunken log2 fold change” value was -0.294.

Take RRIRHRPPRLPRPRPRPWRYPRP: the “shrunken log2 fold change” value is -0.49. As for RRIRLRPPRLPRPRPRPGRPPRP, the “shrunken log2 fold change” value amounted to 0.526. RRIRQRPPRLPRPRPRPEVHPRP: the “shrunken log2 fold change” value amounted to 0.038. In the case of RRIRIRPPRLPRPRPRPIMFPRP, the “shrunken log2 fold change” value is -0.314. For the sequence RRIRFRPPRLPRPRPRPGKEPRP, the “shrunken log2 fold change” value is -0.166.

For the sequence RRIRCRPPRLPRPRPRPNWHPRP, the “shrunken log2 fold change” value is -0.271. As for RRIRGRPPRLPRPRPRPNQGPRP, the “shrunken log2 fold change” value came out at 0.0411.

As for RRIRKRPPRLPRPRPRPENTPRP, the “shrunken log2 fold change” value stood at 0.44.

Take RRIRLRPPRLPRPRPRPMYPPRP: the “shrunken log2 fold change” value is -0.0826. The same measure for RRIRTRPPRLPRPRPRPAPKPRP: 0.371; for RRIRIRPPRLPRPRPRPLVGPRP: -0.0442. Turning to RRIRGRPPRLPRPRPRPQMKPRP, the “shrunken log2 fold change” value was determined as 0.29. For RRIRTRPPRLPRPRPRPQMVPRP, the “shrunken log2 fold change” value is -0.37.

In the case of RRIRHRPPRLPRPRPRPSMEPRP, the “shrunken log2 fold change” value was -0.424.

As for RRIRMRPPRLPRPRPRPTIYPRP, the “shrunken log2 fold change” value is 0.713. Under RRIRIRPPRLPRPRPRPKNPPRP stands -0.439. Consider RRIRTRPPRLPRPRPRPNPHPRP, for which the “shrunken log2 fold change” value was -0.177. For RRIRHRPPRLPRPRPRPGTSPRP, the “shrunken log2 fold change” value was -0.0565.

Consider RRIRIRPPRLPRPRPRPNAKPRP, for which the “shrunken log2 fold change” value amounted to 0.0022.

For RRIRKRPPRLPRPRPRPRTHPRP, the “shrunken log2 fold change” value came to 0.425. Regarding RRIRHRPPRLPRPRPRPIAYPRP, the “shrunken log2 fold change” value was -0.149. Consider RRIRKRPPRLPRPRPRPWWGPRP, for which the “shrunken log2 fold change” value came out at 0.0849. Consider RRIRERPPRLPRPRPRPPANPRP, for which the “shrunken log2 fold change” value came out at 0.0983. Turning to RRIRPRPPRLPRPRPRPPKNPRP, the “shrunken log2 fold change” value amounted to 0.26. For the sequence RRIRTRPPRLPRPRPRPFGPPRP, the “shrunken log2 fold change” value was 0.204.

Regarding RRIRRRPPRLPRPRPRPEDTPRP, the “shrunken log2 fold change” value was determined as 0.0364. In the case of RRIRGRPPRLPRPRPRPWYDPRP, the “shrunken log2 fold change” value is -0.929. In the case of RRIRSRPPRLPRPRPRPHWDPRP, the “shrunken log2 fold change” value was 0.00395.

For the sequence RRIRIRPPRLPRPRPRPASKPRP, the “shrunken log2 fold change” value was -0.116. As for RRIRTRPPRLPRPRPRPLTLPRP, the “shrunken log2 fold change” value was -0.241.

Consider RRIRLRPPRLPRPRPRPLDNPRP, for which the “shrunken log2 fold change” value was -0.293. With RRIRSRPPRLPRPRPRPVSPPRP, the “shrunken log2 fold change” value turned out to be 0.155. The same measure for RRIRTRPPRLPRPRPRPWRHPRP: -0.0184; for RRIRVRPPRLPRPRPRPYSSPRP: -0.644.

For RRIRERPPRLPRPRPRPWVDPRP, the “shrunken log2 fold change” value was -0.665. Turning to RRIRRRPPRLPRPRPRPDQGPRP, the “shrunken log2 fold change” value was -0.0712.

Take RRIRVRPPRLPRPRPRPPSMPRP: the “shrunken log2 fold change” value is -0.0312. As for RRIRNRPPRLPRPRPRPDSIPRP, the “shrunken log2 fold change” value is -0.307. Turning to RRIRNRPPRLPRPRPRPWTAPRP, the “shrunken log2 fold change” value was -0.0401.

Take RRIRGRPPRLPRPRPRPLAFPRP: the “shrunken log2 fold change” value is 0.487. Under RRIRIRPPRLPRPRPRPTTVPRP stands -0.319; under RRIRHRPPRLPRPRPRPGKTPRP, -0.031.

With RRIRMRPPRLPRPRPRPLAAPRP, the “shrunken log2 fold change” value came to 2.64. Consider RRIRDRPPRLPRPRPRPYICPRP, for which the “shrunken log2 fold change” value is -0.148. Consider RRIRWRPPRLPRPRPRPWTSPRP, for which the “shrunken log2 fold change” value is -0.0584.

Regarding RRIRWRPPRLPRPRPRPEAAPRP, the “shrunken log2 fold change” value was found to be 1.76.

For the sequence RRIRGRPPRLPRPRPRPEPRPRP, the “shrunken log2 fold change” value came out at 1.35. On to RRIRARPPRLPRPRPRPVEKPRP, for which the “shrunken log2 fold change” value came to 0.347.

Regarding RRIRDRPPRLPRPRPRPKGSPRP, the “shrunken log2 fold change” value is -0.145. Take RRIRKRPPRLPRPRPRPYKHPRP: the “shrunken log2 fold change” value was -0.347. Regarding RRIRCRPPRLPRPRPRPYYTPRP, the “shrunken log2 fold change” value was 0.00417. With RRIRHRPPRLPRPRPRPFHHPRP, the “shrunken log2 fold change” value is 0.0477. For RRIRRRPPRLPRPRPRPQFAPRP, the “shrunken log2 fold change” value stood at 0.0495.

Turning to RRIRYRPPRLPRPRPRPYMNPRP, the “shrunken log2 fold change” value stood at 0.0271. As for RRIRWRPPRLPRPRPRPQMRPRP, the “shrunken log2 fold change” value was 0.147. The same measure for RRIRYRPPRLPRPRPRPGSWPRP: 0.0212; for RRIRFRPPRLPRPRPRPSFCPRP: -0.373; for RRIRLRPPRLPRPRPRPITRPRP: 0.177. Consider RRIRKRPPRLPRPRPRPCYWPRP, for which the “shrunken log2 fold change” value worked out at 0.0448. For the sequence RRIRQRPPRLPRPRPRPIISPRP, the “shrunken log2 fold change” value was -0.189. Take RRIRNRPPRLPRPRPRPTADPRP: the “shrunken log2 fold change” value stood at 0.422.

Regarding RRIRDRPPRLPRPRPRPVRLPRP, the “shrunken log2 fold change” value amounted to 0.28. Consider RRIRCRPPRLPRPRPRPSFDPRP, for which the “shrunken log2 fold change” value is -0.282. For RRIRHRPPRLPRPRPRPEMYPRP, the “shrunken log2 fold change” value is 0.000706.

On to RRIRMRPPRLPRPRPRPYFQPRP, for which the “shrunken log2 fold change” value is -0.759. The same measure for RRIRNRPPRLPRPRPRPEGRPRP: 0.177; for RRIRVRPPRLPRPRPRPMDLPRP: 0.156. Under RRIRQRPPRLPRPRPRPHAWPRP stands 0.157; under RRIRYRPPRLPRPRPRPQYCPRP, -0.361. Consider RRIRGRPPRLPRPRPRPPIVPRP, for which the “shrunken log2 fold change” value was 0.0957. For RRIRHRPPRLPRPRPRPYAHPRP, the “shrunken log2 fold change” value is -0.702. The same measure for RRIRWRPPRLPRPRPRPPFYPRP: -0.00501; for RRIRERPPRLPRPRPRPKNGPRP: -0.0133.

In the case of RRIRRRPPRLPRPRPRPQVQPRP, the “shrunken log2 fold change” value is 0.0152. With RRIRNRPPRLPRPRPRPHQMPRP, the “shrunken log2 fold change” value is -0.114. The same measure for RRIRGRPPRLPRPRPRPFQDPRP: -0.000102.

RRIRQRPPRLPRPRPRPNKIPRP: the “shrunken log2 fold change” value was -0.388. Consider RRIRVRPPRLPRPRPRPRWMPRP, for which the “shrunken log2 fold change” value is -0.0415.

As to RRIRMRPPRLPRPRPRPECWPRP, the “shrunken log2 fold change” value stood at 2.25.

On to RRIRQRPPRLPRPRPRPGWNPRP, for which the “shrunken log2 fold change” value was -0.0526. Turning to RRIRERPPRLPRPRPRPFDVPRP, the “shrunken log2 fold change” value is -0.0685.

For the sequence RRIRWRPPRLPRPRPRPAAAPRP, the “shrunken log2 fold change” value is 1.21.

Consider RRIRPRPPRLPRPRPRPCWIPRP, for which the “shrunken log2 fold change” value is -0.456. Under RRIRNRPPRLPRPRPRPTMIPRP stands -0.387; under RRIRPRPPRLPRPRPRPWPYPRP, 0.0948; under RRIRPRPPRLPRPRPRPWQTPRP, -0.0715. As to RRIRRRPPRLPRPRPRPKRMPRP, the “shrunken log2 fold change” value is 0.514. Take RRIRQRPPRLPRPRPRPWAYPRP: the “shrunken log2 fold change” value was -0.11. For the sequence RRIRKRPPRLPRPRPRPIKMPRP, the “shrunken log2 fold change” value stood at 0.0326. Under RRIRKRPPRLPRPRPRPRINPRP stands 0.0244; under RRIRSRPPRLPRPRPRPEWPPRP, 0.112; under RRIRHRPPRLPRPRPRPKNEPRP, -0.476.

Consider RRIRFRPPRLPRPRPRPIEMPRP, for which the “shrunken log2 fold change” value is -0.245. Turning to RRIRERPPRLPRPRPRPNHTPRP, the “shrunken log2 fold change” value is -0.58.

As for RRIRHRPPRLPRPRPRPMFVPRP, the “shrunken log2 fold change” value stood at 0.0711. For RRIRSRPPRLPRPRPRPFCMPRP, the “shrunken log2 fold change” value is -0.324.

In the case of RRIRKRPPRLPRPRPRPVTHPRP, the “shrunken log2 fold change” value was found to be 0.0561. Under RRIRKRPPRLPRPRPRPKVEPRP stands 0.0183. Regarding RRIRCRPPRLPRPRPRPDIMPRP, the “shrunken log2 fold change” value was -0.0409. Consider RRIRWRPPRLPRPRPRPCIEPRP, for which the “shrunken log2 fold change” value is -0.0674.

For the sequence RRIRHRPPRLPRPRPRPQMQPRP, the “shrunken log2 fold change” value was -0.0236. As to RRIRTRPPRLPRPRPRPCEMPRP, the “shrunken log2 fold change” value was determined as 0.0671.

Regarding RRIRLRPPRLPRPRPRPQKSPRP, the “shrunken log2 fold change” value is -0.139. Turning to RRIRERPPRLPRPRPRPETPPRP, the “shrunken log2 fold change” value was 0.784. Consider RRIRHRPPRLPRPRPRPPFKPRP, for which the “shrunken log2 fold change” value was 0.332.

With RRIRLRPPRLPRPRPRPKCPPRP, the “shrunken log2 fold change” value is -0.193. Under RRIRFRPPRLPRPRPRPTKWPRP stands 0.333.

As for RRIRGRPPRLPRPRPRPNSFPRP, the “shrunken log2 fold change” value is -0.0356. For the sequence RRIRFRPPRLPRPRPRPYMKPRP, the “shrunken log2 fold change” value is -0.858. Consider RRIRCRPPRLPRPRPRPTYFPRP, for which the “shrunken log2 fold change” value is -0.0696.
